Measured values from US5885961A, “Methods of using epithelins to modulate cell proliferation” (Bristol-Myers Squibb Company, priority 1995, dated 1999).
“Also recorded” adds a separate entry of the source. Like-named read-outs stand apart in the source and are kept apart here.

Experiments:
Balb/MK cells [1] = experiment: Murine keratinocyte growth assay (cell count); type: cell-based; settings: FIG. 16A
Method: FIG. 16(A-B). (FIG. 16A) Effect of epithelin 1 and epidermal growth factor (EGF) on the growth of Balb/MK cells. Assays were performed as described in Section 6.2., infra. .circle-solid., epithelin 1; o, EGF (FIG. 16B) Effect of various concentrations of epithelin 2 on the epithelin 1 (20 ng/ml) induced growth of murine keratinocytes.
Balb/MK cells were plated at 1×10^4 cells per well in 1 ml of low calcium medium (Weissman and Aaronson, 1983, Cell 32:599-606; Carpenter and Zendegut, 1985, Anal. Biochem. 153:279-282) in 24-well Costar plates and incubated at 37° C. for 4-6 hours. Then media were removed and replaced with 1 ml of medium containing various concentrations of the test compound in triplicate. The control wells received only medium without any test material. The plates were incubated at 37° C. for 4 days, then medium was removed, wells were rinsed two times with 1 ml of phosphate-buffered saline, and the cells were detached with trypsin-EDTA and counted.

monkey kidney COS1 cells = experiment: 125I-deoxyuridine incorporation into DNA, COS1; type: cell-based
Balb/MK cells [2] = experiment: Growth stimulatory activity (GSA), 125I-deoxyuridine incorporation into DNA of murine keratinocytes; type: cell-based; settings: FIG. 15A
Method: FIG. 15(A-B). (FIG. 15A) Effect of epithelin 1 and epithelin 2 on the stimulation of ^125 I-deoxyuridine incorporation into DNA of the murine keratinocyte cell line Balb/MK. 2,000-4,000 cells were plated per well in 96 well plates in low-calcium medium containing 5% dialyzed FBS. Then GSA assays were performed as described in Section 6.2., infra. .circle-solid., epithelin 1; o, epithelin 2. (FIG. 15B) Effect of various concentrations of epithelin 2 on epithelin 1 (20 ng/ml) elicited incorporation of ^125 I-deoxyuridine into DNA of Balb/MK cells.
Balb/MK cells were also used as indicator cells in 96 well plates to assess the growth inhibitory activity (GIA) or growth stimulatory activity (GSA) of a test material using ^125 I-deoxyuridine incorporation into DNA as described in the previous section.

[3] = test system: human fibroblasts and several other human tumor cells; experiment: 125I-deoxyuridine incorporation into DNA, human fibroblasts and other human tumor cells; type: cell-based; settings: maximum dose tested: 20 ng/ml epithelin 1, 270 ng/ml epithelin 2
NRK cells = experiment: Mitogenic activity on NRK cells in monolayer; type: cell-based, rat
mink lung CCL 64 cells = experiment: 125I-deoxyuridine incorporation into DNA, CCL 64; type: cell-based
[4] = test system: human colon carcinoma cell line HCT 116; experiment: 125I-deoxyuridine incorporation into DNA, HCT 116; type: cell-based; settings: maximum dose tested: 20 ng/ml epithelin 1, 270 ng/ml epithelin 2
EGF receptors = EGF receptors (Homo sapiens, UniProt P00533); experiment: Binding of 125I-EGF to its receptors
[5] = Resistance of bioactivity to chemical, heat and enzyme treatment; type: physicochemical
Method: Epithelin 1 and epithelin 2 are resistant to treatment with 1M acetic acid, 1M ammonium hydroxide, 6M urea, 0.01M sodium metaperiodate, to heating at 56° C. for 30 minutes, and to treatment with various glycosidases or lipases. However, epithelin activity was sensitive to reduction, to reduction and 4-vinylpyridine treatment, and to digestion with proteinases such as trypsin, endoproteinase Lys-C, and endoproteinase Glu-C (V8).

[6] = test system: A431 human epidermoid carcinoma cells; experiment: Cell growth inhibitory activity (GIA), 125I-deoxyuridine incorporation into DNA; type: cell-based; settings: for potency relative to epithelin 2 in inhibiting A431 cells: epithelin 1 vs epithelin 2
Method: The cell growth inhibitory activity (GIA) assays were performed in flat-bottom 96 well plates (Falcon 3072). Human epidermoid carcinoma of vulva cells (A431) were used as test cells for GIA. 3.5×10^3 cells in 50 μl of test medium (DMEM supplemented with 5% heat inactivated fetal bovine serum (FBS), penicillin/streptomycin (PS) and glutamine) were placed in all wells except peripheral wells. The peripheral wells received 50 μl PBS. Three hours later, 50 μl of test sample in test medium was added to each well, while control wells received only 50 μl of test medium. Three wells were used for each concentration of test sample. Plates were incubated at 37° C. for 2-3 days. Then, 100 μl of a solution of […] (^125 I-IUdR, 4Ci/mg-0.5 mCi/ml, 2 μl/ml in test medium) was added to each well and plates were incubated at 37° C. After 4-6 hours, the medium was aspirated from the wells, which were then washed once with 200 μl PBS. Then, 200 μl methanol was added to each well, plates were incubated for 10 minutes at room temperature, and the methanol was removed by aspiration. 200 μl of 1M sodium hydroxide was added to each well, the plates were incubated for 30 minutes at 37° C. Sodium hydroxide was removed with titertek plugs (Flow Labs). The plugs were transferred into 12×75 mm plastic tubes and counted in a gamma counter to quantify ^125 I-IUdR incorporation.

NRK-SA6 cells = experiment: Soft agar colony assay in the presence of TGFβ; type: cell-based, rat; settings: in the presence of TGFβ 1 ng/ml, FIG. 17
Method: FIG. 17. Effect of epithelin 1 and 2 on NRK-SA6 cell colony formation in soft agar in the presence of TFGβ (1 ng/ml). The colony formation assay used is described in Section 6.2.3, infra. Solid bars, epithelin 1; stippled bar, epidermal growth factor; open bar, epithelin 2; hatched bar, 20 ng/ml epithelin 1 plus 500 ng/ml epithelin 2.
A 0.38 ml base layer of 0.5% agar (Agar Noble; Difco Laboratories, Detroit, Mich.) in DMEM containing 10% heat inactivated FBS was added to 24 well Costar tissue culture plates. 0.38 ml of 0.3% agar containing the same medium-FBS mixture, 6-12×10^3 test cells, and the test proteins at various concentrations were overlaid on the basal layer of agar. The plates were incubated at 37° C. in a humidified atmosphere of 5% CO2 in air. Colonies were enumerated unfixed and unstained, and the number of colonies was scored between days 7 and 10. Colonies were defined as a cluster of at least eight cells.

B1: epithelin 1: single chain polypeptide of 56 amino acid residues, 12 cysteines, purified from rat kidney; also expressed recombinantly in COS cells (protein)
chain: LPGYPVNEVKCDLEVSCPDGYTCCRLNTGAWGCCPFTKAVCCEDHIHCCPAGFQCHTETGTCEL
- effect on growth of Balb/MK cells (rodent keratinocytes) (Balb/MK cells [1]): did not proliferate in the absence of EGF or epithelin 1
- effect on 125I-deoxyuridine incorporation into DNA (monkey kidney COS1 cells): significantly inhibited
- effect on 125I-deoxyuridine incorporation into DNA of Balb/MK cells (Balb/MK cells [2]): stimulated the ^125 I-deoxyuridine incorporation in a dose-dependent manner
- effect on human fibroblasts and several other human tumor cells [3]: Neither protein exhibited any significant effect
- mitogenic activity on NRK cells in monolayer (NRK cells): exhibited mitogenic activity
- effect on 125I-deoxyuridine incorporation into DNA (mink lung CCL 64 cells): significantly inhibited
- effect on growth of HCT 116 cells [4]: slighly inhibited
- effect on binding of 125I-EGF to its receptors (EGF receptors): Neither epithelin 1 nor epithelin 2 significantly affected the binding
- resistance to 1M acetic acid, 1M ammonium hydroxide, 6M urea, 0.01M sodium metaperiodate, heating at 56° C. for 30 minutes, glycosidases or lipases [5]: stable
- sensitivity of activity to reduction, reduction and 4-vinylpyridine treatment, and proteinases (trypsin, Lys-C, Glu-C) [5]: sensitive
- resistance to 1M acetic acid, 1M ammonium hydroxide, 6M urea, 0.01M sodium metaperiodate, heating at 56° C. for 30 minutes, glycosidases or lipases ([5]; listed as Epithelin 1): resistant
- effect on A431 cells [6]: inhibitory effect
- 50% inhibition of DNA synthesis (125I-deoxyuridine incorporation) ([6]; A431 cells, purified protein, FIG. 14): 12.8 ng/well
- IC50 ([6]; A431 cells, read-out: concentration for 50% inhibition of 125I-deoxyuridine incorporation): ~21 nM
- potency relative to epithelin 2 in inhibiting A431 cells [6]: ~36 times
- potency relative to epithelin 2 in inhibiting A431 cells ([6]; listed as Epithelin 1): about 36 times
- Specific Activity ([6]; final purification step Anal. Tsk-250, pool 1b): 20,609 Units/mg
- Specific Activity ([6]; final purification step Anal. Tsk-250, pool 2b): 21,048 Units/mg
- specific activity of purified protein (GIA) ([6]; one unit = amount inhibiting 125I-deoxyuridine incorporation into A431 cells by 50%): about 2.1×10^4 units/mg protein
- calculated specific activity relative to epithelin 2 ([6]; purified proteins): ten
- growth inhibitory activity secreted by transfected COS cells ([6]; recombinant, supernatant of cβrEPN1 transfection partially purified on TSK-250, A431 cells): approximately 25 GIA units/100 mm plate
- anchorage-independent growth (colony formation in soft agar) of NRK cells (NRK-SA6 cells): induced the anchorage-independent growth of NRK cells in a dose-dependent manner; also recorded: can induce anchorage-independent growth

B2: epithelin precursor: unprocessed 589-residue rat preprotein (SEQ ID NO:2) with 7 cysteine-rich motifs, expressed in COS cells (protein)
chain: MWILVSWLALVARLVAGTQCPDGQFCPVACCLDQGGANYSCCNPLLDTWPIITSRRLDGSCQIRDHCPDGYSCLLTVSGTSSCCPFSEGVSCDDGQHCCPRGFHCSADGKSCSQISDSLLGAVQCPGSQFECPDSATCCIMIDGSWGCCPMPQASCCEDRVHCCPHGASCDLVHTRCISPTGTHPLLKKFPAQRTNRAVAFPFSVVCPDAKTQCPDDSTCCELPTGKYGCCPMPNAICCSDHLHCCPQDTVCDLIQSKCISKDYTTDLMTKLPGYPVNEVKCDLEVSCPDGYTCCRLNTGAWGCCPFTKAVCCEDHIHCCPAGFQCHTETGTCELGVLQVPWMKKVTASLSLPDPQILKNDVPCDDFSSCPSNNTCCRLSSGDWGCCPIPEAVCCLDHQHCCPQGFKCMDEGYCQKGDRMVAGLEKMPVRQTTLLQHGDIGCDQHTSCPVGQTCCPSLKGSWACCQLPHAVCCEDRQHCCPAGYTCNVKARTCEKDAGSVQPSMDLTFGSKVGNVECGAGHFCHDNQSCCKDSQGGWACCPYVKGVCCRDGRHCCPIGFHCSAKGTKCLRKKTPRWDILLRDPAPRPLL
- effect on growth of Balb/MK cells (rodent keratinocytes) (Balb/MK cells [1]): no activity
- effect on A431 cells [6]: no activity
- anchorage-independent growth (colony formation in soft agar) of NRK cells (NRK-SA6 cells): no activity
